Assay results published in publication doi:10.1101/2025.08.25.672233.

target: soluble mouse MXRA8-Fc (UniProt Q9DBV4); details: mean of three biological replicates; parent: est. 2.6; read off a plot
Sequence of UniProt Q9DBV4 (Q9DBV4 22-336): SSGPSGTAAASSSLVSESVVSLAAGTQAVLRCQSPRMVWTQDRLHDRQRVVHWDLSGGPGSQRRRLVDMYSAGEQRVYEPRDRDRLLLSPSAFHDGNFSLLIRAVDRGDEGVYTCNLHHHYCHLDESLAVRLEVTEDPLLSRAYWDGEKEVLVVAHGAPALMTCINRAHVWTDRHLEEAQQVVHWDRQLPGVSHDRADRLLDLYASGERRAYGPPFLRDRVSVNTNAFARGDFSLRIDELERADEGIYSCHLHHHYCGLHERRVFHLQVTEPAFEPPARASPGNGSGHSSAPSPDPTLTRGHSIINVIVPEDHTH

Substance | other: 1/IC50
CHIKV envelope proteins (E3-E2-6K-E1) from the 181/25 strain, unmutated, on pseudovirus E2:R178S | 1
CHIKV envelope proteins (E3-E2-6K-E1) from the 181/25 strain, unmutated, on pseudovirus E2:E24Y | 1.1
CHIKV envelope proteins (E3-E2-6K-E1) from the 181/25 strain, unmutated, on pseudovirus E1:D158R | 15
CHIKV envelope proteins (E3-E2-6K-E1) from the 181/25 strain, unmutated, on pseudovirus E2:Q158T | 2.1
CHIKV envelope proteins (E3-E2-6K-E1) from the 181/25 strain, unmutated, on pseudovirus E2:I121E | 0.05
CHIKV envelope proteins (E3-E2-6K-E1) from the 181/25 strain, unmutated, on pseudovirus E1:K132N | 0.3
CHIKV envelope proteins (E3-E2-6K-E1) from the 181/25 strain, unmutated, on pseudovirus E2:H18A | 3.2
CHIKV envelope proteins (E3-E2-6K-E1) from the 181/25 strain, unmutated, on pseudovirus E1:K157C | 0.71
CHIKV envelope proteins (E3-E2-6K-E1) from the 181/25 strain, unmutated, on pseudovirus E2:K189Y | 140
CHIKV envelope proteins (E3-E2-6K-E1) from the 181/25 strain, unmutated, on pseudovirus E2:K120D | 0.17
CHIKV envelope proteins (E3-E2-6K-E1) from the 181/25 strain, unmutated, on pseudovirus E2:A157S | 9.4
CHIKV envelope proteins (E3-E2-6K-E1) from the 181/25 strain, unmutated, on pseudovirus E2:R119K | 0.05

same assay, conditions: parent: est. 0; read off a plot

Substance | screen value
CHIKV envelope proteins (E3-E2-6K-E1) from the 181/25 strain, unmutated, on pseudovirus E2:R178S | -2.3
CHIKV envelope proteins (E3-E2-6K-E1) from the 181/25 strain, unmutated, on pseudovirus E2:E24Y | 1.9
CHIKV envelope proteins (E3-E2-6K-E1) from the 181/25 strain, unmutated, on pseudovirus E1:D158R | 1.9
CHIKV envelope proteins (E3-E2-6K-E1) from the 181/25 strain, unmutated, on pseudovirus E2:Q158T | -0.15
CHIKV envelope proteins (E3-E2-6K-E1) from the 181/25 strain, unmutated, on pseudovirus E2:I121E | -3.1
CHIKV envelope proteins (E3-E2-6K-E1) from the 181/25 strain, unmutated, on pseudovirus E1:K132N | -2.6
CHIKV envelope proteins (E3-E2-6K-E1) from the 181/25 strain, unmutated, on pseudovirus E2:H18A | 1.6
CHIKV envelope proteins (E3-E2-6K-E1) from the 181/25 strain, unmutated, on pseudovirus E1:K157C | -1.7
CHIKV envelope proteins (E3-E2-6K-E1) from the 181/25 strain, unmutated, on pseudovirus E2:K189Y | 2.4
CHIKV envelope proteins (E3-E2-6K-E1) from the 181/25 strain, unmutated, on pseudovirus E2:K120D | -2.5
CHIKV envelope proteins (E3-E2-6K-E1) from the 181/25 strain, unmutated, on pseudovirus E2:A157S | 0.85
CHIKV envelope proteins (E3-E2-6K-E1) from the 181/25 strain, unmutated, on pseudovirus E2:R119K | -3.5
